# According to publication PMC5571939, “The nature of the Syntaxin4 C-terminus affects Munc18c-supported SNARE assembly” (PLoS ONE, 2017):
# B1: HMunc18c (natural protein, mouse, UniProt Q60770 1-592, looked up)
# chain: MAPPVSERGLKSVVWRKIKTAVFDDCRKEGEWKIMLLDEFTTKLLSSCCKMTDLLEEGITVIENIYKNREPVRQMKALYFISPTPKSVDCFLRDFGSKSEKKYKAAYIYFTDFCPDSLFNKIKASCSKSIRRCKEINISFIPQESQVYTLDVPDAFYYCYSPDPSNASRKEVVMEAMAEQIVTVCATLDENPGVRYKSKPLDNASKLAQLVEKKLEDYYKIDEKGLIKGKTQSQLLIIDRGFDPVSTVLHELTFQAMAYDLLPIENDTYKYKTDGKEKEAVLEEDDDLWVRVRHRHIAVVLEEIPKLMKEISSTKKATEGKTSLSALTQLMKKMPHFRKQISKQVVHLNLAEDCMNKFKLNIEKLCKTEQDLALGTDAEGQRVKDSMLVLLPVLLNKNHDNCDKIRAVLLYIFGINGTTEENLDRLIHNVKIEDDSDMIRNWSHLGVPIVPPSQQAKPLRKDRSAEETFQLSRWTPFIKDIMEDAIDNRLDSKEWPYCSRCPAVWNGSGAVSARQKPRTNYLELDRKNGSRLIIFVIGGITYSEMRCAYEVSQAHKSCEVIIGSTHILTPRKLLDDIKMLNKSKDKVSFKDE
# notes: Munc18c (Munc18-3), mouse; also called Munc18c with an N-terminal His6-tag; source: E. coli, purified as described previously [39]; not shown: His6, N-terminal, kept
# Tests used:
# Conditions in all cases: both partners purified
# Sx4_(1-275)-T4L-His [1] = biological target: T1, Sx4_(1-275)-T4L-His (rat | phage T4 (from the name T4 …, UniProt Q08850 1-275; P00720 1-164, C141S); experiment: BLI; C-terminally His-tagged Sx4 constructs loaded on Ni-NTA biosensors; de-tagged Munc18c 10/25–400 nM in solution; 25 mM Tris-Cl pH 7.5, 150 mM NaCl, 10 mM imidazole, 0.1% TX-100, 10% glycerol, 2 mM βME; BLItz; 1:1 fit
# T1 construct: T4 lysozyme (T4L), amino acids 1-164, synthetic gene (GeneArt); Sx4 ligated between NdeI and HindIII, T4L between HindIII and XhoI of pET20b; also called Sx4 cytoplasmic domain with C-terminal T4-lysozyme fusion and His6; source: E. coli, purified; not shown: His6, C-terminal, kept
# Sx4_(1-275)-T4L-His [2] = biological target: T1, Sx4_(1-275)-T4L-His; experiment: ITC; Sx4-T4L-His construct (200–250 μM) titrated into HMunc18c (20–40 μM) in the cell; 298 K; 25 mM HEPES pH 8.0, 200 mM NaCl, 10% glycerol, 2 mM β-ME; single site model
# [3] = biological target: T2, Alexa488-labeled Sx4_(1-275)-T4L-His (native C141) (rat | phage T4 (from the name T4 …, UniProt Q08850 1-275)); P00720 1-164, Alexa Fluor 488 C5 maleimide on cysteine (native C141 rather than C141S)); experiment: fluorescence polarisation; fluorescence anisotropy kinetics, both in solution: Alexa488-labeled Sx4 (50 nM) with HMunc18c at 100–2500 nM; 25°C; 25 mM HEPES pH 8.0, 200 mM NaCl, 1 mM TCEP, 2% glycerol; global 1:1 fit (Dynafit 4.0)
# T2 construct: T4 lysozyme (T4L), amino acids 1-164, synthetic gene (GeneArt); Degree of labeling greater than 90%; not shown: His6, C-terminal, kept
# HMunc18c = biological target: B1; experiment: as above
binder,measurement,setting,value
"Munc18c (de-tagged) (natural protein, mouse, UniProt Q60770 1-592, looked up, Munc18c (Munc18-3), mouse; also called detagged Munc18c; HTMunc18c after TEV cleavage; source: E. coli, purified (IMAC, TEV cleavage, reverse IMAC, SEC); not shown: His6, N-terminal, cleaved) MAPPVSERGLKSVVWRKIKTAVFDDCRKEGEWKIMLLDEFTTKLLSSCCKMTDLLEEGITVIENIYKNREPVRQMKALYFISPTPKSVDCFLRDFGSKSEKKYKAAYIYFTDFCPDSLFNKIKASCSKSIRRCKEINISFIPQESQVYTLDVPDAFYYCYSPDPSNASRKEVVMEAMAEQIVTVCATLDENPGVRYKSKPLDNASKLAQLVEKKLEDYYKIDEKGLIKGKTQSQLLIIDRGFDPVSTVLHELTFQAMAYDLLPIENDTYKYKTDGKEKEAVLEEDDDLWVRVRHRHIAVVLEEIPKLMKEISSTKKATEGKTSLSALTQLMKKMPHFRKQISKQVVHLNLAEDCMNKFKLNIEKLCKTEQDLALGTDAEGQRVKDSMLVLLPVLLNKNHDNCDKIRAVLLYIFGINGTTEENLDRLIHNVKIEDDSDMIRNWSHLGVPIVPPSQQAKPLRKDRSAEETFQLSRWTPFIKDIMEDAIDNRLDSKEWPYCSRCPAVWNGSGAVSARQKPRTNYLELDRKNGSRLIIFVIGGITYSEMRCAYEVSQAHKSCEVIIGSTHILTPRKLLDDIKMLNKSKDKVSFKDE",Kd,Sx4_(1-275)-T4L-His [1],20 nM
same,koff,Sx4_(1-275)-T4L-His [1],0.0078 s⁻¹
same,kon,Sx4_(1-275)-T4L-His [1],430000 M⁻¹ s⁻¹
B1,Kd,Sx4_(1-275)-T4L-His [2],100 nM
same,Kd,[3],148 nM
same,koff,[3],7.5e-05 s⁻¹
same,kon,[3],502 M⁻¹ s⁻¹
"Alexa488-labeled Sx4_(1-275)-His (native C141) (domain or fragment, rat, UniProt Q08850 1-275, looked up, Alexa Fluor 488 C5 maleimide on cysteine (native C141 rather than C141S), Degree of labeling greater than 90%; not shown: His6, C-terminal, kept) MRDRTHELRQGDNISDDEDEVRVALVVHSGAARLSSPDDEFFQKVQTIRQTMAKLESKVRELEKQQVTILATPLPEESMKQGLQNLREEIKQLGREVRAQLKAIEPQKEEADENYNSVNTRMKKTQHGVLSQQFVELINKCNSMQSEYREKNVERIRRQLKITNAGMVSDEELEQMLDSGQSEVFVSNILKDTQVTRQALNEISARHSEIQQLERSIRELHEIFTFLATEVEMQGEMINRIEKNILSSADYVERGQEHVKIALENQKKARKKKVM",Kd,HMunc18c,502 nM
same,koff,HMunc18c,0.000653 s⁻¹
same,kon,HMunc18c,1300 M⁻¹ s⁻¹
